Laboratory results published in the supplement of paper PMC9170038.

Tested on: K4 kissing-loop RNA reporter
Experiment: apparent KD of K4 kissing-loop reporter; higher = weaker reporter binding
Conditions: Eterna round: R107
Method: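 RNA-MaP round R107: designed RNA switches with theophylline, tryptophan, arginine or FMN aptamers are transcribed on-chip within common flanks. They are titrated with a labelled K4 kissing-loop RNA reporter in RNA-MaP buffer (100 mM Tris pH 7.5, 80 mM KCl, 4 mM MgCl2), without ligand or with the indicated ligand. Median apparent KD per design.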

[1] = input ligand: theophylline 20 uM
[2] = input ligand: tryptophan 2.4 mM
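Also: bound reporter read as fluorescence of individual clusters on recovered sequencing chips by microscopy, with normalized cluster intensities fitted with a binding model.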

Sequence | apparent KD of K4 kissing-loop reporter (input ligand: FMN 200 uM) [nM] | apparent KD of K4 kissing-loop reporter (input ligand: arginine 13.2 mM) [nM] | apparent KD of K4 kissing-loop reporter (input ligand: none) [nM] | apparent KD of K4 kissing-loop reporter [1] [nM] | apparent KD of K4 kissing-loop reporter [2] [nM]
UGGAGUUGACGAAAAGUCAACUCCUGAGAUACCAGUGACGAAAGUCACCCUUGGCAGCUCACUGCCAGUGAUGUUGGUAAAUAAA [#OpenEnded 3] | 78.1 | 92.5 | 159 | 568 | 81.8
GCCAUCAGGUCGCAAGACCUGAUAGCCGAUACCAGCGCGAAGGUGCGCCCUUGGCAGCGGCACCGAGUGAUGUUCGGUCAGGCGG [#2 Same State - Theophylline A Attempt #3 (HarryS)] | 490 | 490 | 595 | 291 | 554
GUCCCGAGUGAUGUUCGGGUCGUUCGGGAAGGAGCGCCCGCAAGGGCAGGUAGGUCGCCCGGAUCCCUCAGGUAACUGAGGGACC [#2 Same State - Arginine A Attempt #26 (HarryS)] | 632 | 428 | 491 | 467 | 465
UUUCGUUUCGUCUGACAUAAUUGGCUAGAAGGAGCGGUAAAAUUACCAGGUAGGUCGCUAGCCCAGUGAUGUUGGGACUAGCAUA [Onqudi] | 148 | 154 | 133 | 156 | 171
AGUGCACUGUCAGGAUAUAUACAGUGAUGUUGUGUAUGUCAGCAAGUCAAAGACUUGCUGUUCUGUGUAGAAGGGACUGUGUACA [Omei KL FMN B Exc A v3] | 911 | 457 | 450 | 467 | 426
AUUCAUGAGUGAUGUUCAUCGGCAGGAGAUACCAGCGAGUUAACCCGCCCUUGGCAGCUCAAGUAUAGGGACUCUGGCAUCGCCU [theeternabot_exclusion_KL_Theo_A_18] | 406 | 374 | 547 | 405 | 369
UUACGAGUGAUGUUCGAAUAAAUCCAUUCAGAGGAUAUAGUAUUAACUAGAAGGCUGAAACCAACUUCGAGUCAUGUUCGAGGAU [Same State FMN A GF 2] | 271 | 324 | 277 | 514 | 269
CGCAAGCAGCUAGUGAUGUUGGCCGCCUUGCGAGGACCGGUACGGCCGCCACUCGGAGGCGGCUACUGAUAAACCGUCUAACGGA [KL-XTryp-A10] | 87.5 | 67.2 | 84.3 | 70.6 | 224
CCAUCGCUAUUCGAUACCAGUCUUUUUUAUUUAUAAAAUCUGCAAAGGAGUGAUGUUCCAGACCCUUGGCAGCGAAUAGUGAUGG [Theophylline B K4 3] | 401 | 441 | 464 | 570 | 459
UGUAUGUGAUUUGAUACCAGACCAUCUUGUGAAUGAUGAGUGAUGUUUAUUAUGGUUUGGGUCCCUUGGCAGCAAAUCGCAUACU [KL-SSTheoB25] | 926 | 717 | 976 | 781 | 803
UGUGCCAACAGUGAUACCAGCGUGGAGUGAUGUUCCGAGGAUCGGAGUGAUGUUCCGAAGCGCCCUUGGCAGCGCAGAAGCGCGA [Exclusion Theophylline B GF 26] | 239 | 156 | 186 | 189 | 182
GCGGGCCAGACGGCCGCCACUCCGGGCAGUGAUGUUGCGAAAAUUCUACUAGAGUGAUGUUCUACGAGGACCGGGUCGGAACGCG [Exclusion Tryptophan B Gf 12] | 370 | 476 | 538 | 495 | 257
UUUGUAUAGGGAAGGAGCGUGAAUGAUAAUGAAUAUAGUGAUGUUAUAUAGAAGAAAGAAUCACAGGUAGGUCGCCCGGAGGAGG [SSArgB.I] | 198 | 234 | 1000 | 456 | 247
CCGAAGAACCAGUGAUGUUGGUUGACUAGACAGGAUAUGAGCAACAUCAGAAGGGUCUGGCUUCGGGAGUGGGCCGCGCUGACCU [Artilati] | 324 | 193 | 240 | 1210 | 395
GCGGACAUUCGCAGUGAUGUUGCGACGGAAGGAGCGCGUGAAAACGCAGGUAGGUCGCCGACAAAAUUAAUUUUAAUGUGUUCGC [Arginine A K4 30] | 362 | 387 | 394 | 415 | 306
UAUACGCUAGUGAUGUUGGCGAAGACUGAAGGAGCGUGCGAGAGUACAGGUAGGUCGCAGUCAGACAGAUUGUACCUGUCUUAUG [Arg A SS t10] | 268 | 243 | 295 | 349 | 356
GCCUUAUAUCGAGCUACAGCUCGAUUUGGUCGAGGACCGGUACGGCCGCCACUCGAAUGAUAGUGAUGUUAUCAUUAUGGCCUAA [JR_ExcTryptoA_Sub022] | 185 | 137 | 183 | 130 | 148
GGAUUGCCAGUGAUGUUGGCAUAAUCUGAAGGAGCGCGUGAAAACGCAGGUAGGUCGCAGAACCUUGCCAACUGAUCGAAAGAUC [Ex Arginine A K4 30] | 145 | 165 | 155 | 185 | 150
ACACAGAGUUGCCGAGUGAUGUUCGGCUUACGAGGACCGGUACGGCCGCCACUCGUUACUCUGUGUUUUGGACACCAAGGCGUCG [Tionzaanon] | 651 | 449 | 543 | 505 | 201
GGGCCUCUGGCUGAUACCAGUGAUGCAGGGUCCGAGACAGGGAGUGAUGUUCCCUGCAGCCACCCUUGGCAGCAGUUUAAGUUUG [Exclusion Theophylline B GF 19] | 136 | 124 | 122 | 124 | 129
CUCGAGUGAUGUUCGAUUAUUUAUACAGAUACCAGUGAAUUUUAACACCCUUGGCAGCUGGUAGUAUCUUUGUAAUUUUAACUAG [JR_ExcTheophyA_Sub003] | 133 | 181 | 147 | 176 | 111
AUUAACCUUUUAGCUAUAUUUUUAUGUGAUACCAGACAUGGCAUAGUCCCUUGGCAGCACAUUAUAUUUACGAGUGAUGUUCGAA [JR_SSTheophyA_Sub026] | 243 | 250 | 261 | 271 | 194

Sequence | apparent KD of K4 kissing-loop reporter (input ligand: FMN 200 uM) [nM] | apparent KD of K4 kissing-loop reporter (input ligand: arginine 13.2 mM) [nM] | apparent KD of K4 kissing-loop reporter (input ligand: none) [nM] | apparent KD of K4 kissing-loop reporter [1] [nM] | apparent KD of K4 kissing-loop reporter [2] [nM]
CGCAGUGAUGUUGCGAGUAGCUACAGGGAAGGAGCGUGCUAGAGCACAGGUAGGUCGCCCAGUGGCAGUGAUGUUGCCAAAGGGU [Exclusion ARginine A GF 17] | 126 | 119 | 118 | 126 | 116
AGUGAAGUUAGUGAUGUGUGAGUUUGGGAAGGAGCGCCGAGAACGGCAGGUAGGUCGCCCAGUGAUGUUGGUGUAAAGAUGAGAG [whbob_Ex_Arginine_A_2t121] | 275 | 184 | 239 | 232 | 208
UGUCAUUGGUCGGCCGCCACUUCAAAAGGUCAAAGACCAGAGUGAUGUUCUUCACGAAACGUGAGAAGGACCGGGACCGAUGACU [TrypBS 12 #SwitchBubble #K4Middle] | 226 | 123 | 191 | 266 | 638
CGUACGGUUUCUUUCUUUCCGUACGCGUGCCGAGGACCGGUACGGCCGCCACUCGCUACAGCCUAGUGAUGUUAGGCAAUUCUUU | 107 | 111 | 112 | 124 | 89.9
UGUGUUGUUUUGAUGUUUGGUGUUGCUUGGCAGGAUAUCGUAGAGGCGAGAAGGGCUUGUGAGCGGUAUGAGUGAUGUUUGUAGG [zwwrmullin] | 485 | 282 | 455 | 416 | 336
UGUUCAAGUGAUGUUUGAGACUAGGUGGAUACCAGCGCAUGCAGUCGCCCUUGGCAGCCAGAAACCAACGCCGCGCGCUUCGGCU [theeternabot_sameState_KL_Theo_A_39] | 342 | 325 | 464 | 350 | 334
UGGAUAUAGUGAUGUUAUAUAGAGAGUGAUACCAGUUUAGAGAAGAACCCUUGGCAGCAUAGAAGAGUAUCAUUGGAGAAGAAUG [ExTheophyl.Aq] | 243 | 193 | 242 | 181 | 155
UUCUGCAUCUCGGCCGCCACUCACUAGUGAUGUUAGUAAGGAGCGACUAGACAUGUCCCGUUGUUGAGGACCGGGAGAGGCUCUU [#14 K4 Tryptophan B Exclusion] | 156 | 164 | 164 | 191 | 170
UUAGAGAUCUCAGGAUAUCAGUGAUGUUGGUGUUAAGAUCUGAGAUAGAAUUCUAUCUCAGAUCAAUGAGAAGGGAGAUCUCAUU [AK3 Exc FMN B] | 296 | 132 | 167 | 161 | 152
UGUGUUGUUUUGAUGUUUGGUGUAAGUUGGCAGGAUAUCGUAGAGGCGAGAAGGGCUUUUAUGCGUUAUGAGUGAUGUUUGUAGG [zrrzmullin] | 640 | 330 | 538 | 404 | 699
GGAUAGGACAGAGGAUAUGGUAGUGAUGUUACCACGAGACAAAGUCUCGAAAAGCUACAAAGUAGCCCAGAAGGCUGUCCUAUCG [FmnBX 25 #SwitchBubble #StaticStem #Palindromic] | 402 | 116 | 130 | 114 | 127
CGUCACAAACCUAGUCAAGUGAUGUUUGGCCGAGGACCGGUACGGCCGCCACUCGCUCCUGUCACCCAUUCGUGUGUCGCGGACU [theeternabot_exclusion_KL_Trp_A_5] | 377 | 148 | 316 | 473 | 297
UUCAGGUGUUCGGCCGCCACUCCAGUGAUGUUGGAGUGGCUUCACAAGGACCAGGACAAUGUAAGGAGGACCGGGAAUAUCGCAG [Leerat] | 143 | 110 | 131 | 115 | 125
UGAUAGGACAGAAGGAGCGGUAGUGAUGUUACCAAAAGGAUAAGGUGUCAAAAGACACCCUGCCAGGUAGGUCGCUGUCCUAUCU | 102 | 100 | 107 | 98.8 | 87
GCGAACAUUCGCAGUGAUGUUGCGACGGAAGGAGCGCGUGAAAACGCAGGUAGGUCGCCGACAAAAUUAAUUUUAAUGUGUUCGC [Arginine A K4 27] | 373 | 440 | 488 | 471 | 315
AAUAUCUAGUAUAUAUUUUAUAAAACAGAUACCAGUGAUUAUAUACACCCUUGGCAGCUGGACGAGUGAUGUUCGUAUAUAUUAA [JR_SSTheophyA_Sub008] | 118 | 188 | 147 | 244 | 89
GGUAGCAUGGCGGCCGCCACUCUUCAUUAGUGAUGUUAAUGCCGAGUGGGCAAACUCCGCCAGGAGAGGACCGGGCCAUGCUACC | 82.6 | 75.1 | 80.8 | 62.7 | 244
AAGGGCUAGGCGGCCGCCACUGGUCGUGAACACAUACGAGCCAGUGAUGUUGGUAUUGUGUGCGGCAGGACCGGGCCUAGCCGAA [Exclusion - Tryptophan B (Freestyle 24)] | 343 | 338 | 391 | 409 | 462
AGGCCCGGCCGAAAGGCCGGGCCAAGAGAUACCAGCAGCGAAAGCUGCCCUUGGCAGCUCACUUAGUGAUGUUAAGAGAUAAAUG [SS Theo A Tesla 1.2] | 365 | 353 | 294 | 424 | 279
UCAUCGGUACAAGGAUAUUAGAGGUAGUGAUGUUACCCGUUUUUUAUACAUCGAUGUCACCCUAACUAAGAAGGUGUUCAAACUU [theeternabot_exclusion_KL_FMN_B_7] | 62.5 | 52.7 | 50.2 | 54 | 38.4
UACGUAGAGCGAGGAUAUCCUUCCCACGUCGAAGUACCGUGCUUGAUGGAGUGAUGUUCGAUCAGAGGAGAAGGUGCGAAACGUC [Flavin Switch Lower Fold Energy] | 725 | 618 | 724 | 622 | 524
